From patent publication US20220177587A1, “METHODS AND USES OF VARIANT CD80 FUSION PROTEINS AND RELATED CONSTRUCTS” (Alpine Immune Sciences, Inc., priority 2018, published 2022)
Numbering of substitutions follows the chain as printed. Names and notes keep the numbering of the source.

B1: E35D/M47V/N48K/V68M/K89N: variant CD80 IgV-Fc, IgV SEQ ID NO:465 (protein)
chain: VIHVTKEVKEVATLSCGHNVSVEELAQTRIYWQKDKKMVLTMMSGDVKIWPEYKNRTIFDITNNLSIMILALRPSDEGTYECVVLKYENDAFKREHLAEVTLSVKAD
B2: E35D/M47I/L70M: variant CD80 IgV-Fc, IgV SEQ ID NO:199 (SEQ ID NO:125 in b995) (protein)
chain: B1 chain with V47I, K48N, M68V, L70M, N89K

Experiments:
CD28 [1] = target: T1, CD28 (Homo sapiens, UniProt P10747); assay: Jurkat/IL2 + K562/OKT3/PD-L1 reporter assay; assay type: cell-based; design: host or cells: Jurkat cells expressing an IL-2-luciferase reporter
CD28 [2] = target: T1, CD28; assay: Flow binding to Jurkat/IL2 reporter cells (CD28); design: host or cells: Jurkat cells expressing an IL-2-luciferase reporter; conditions: Table E19; Jurkats (CD28); 33.3 nM
How it was run: (§1)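 Cells were first blocked in PBS with 1% BSA and 0.1% sodium azide. Primary staining with fusion protein ran 45 min on ice, and secondary staining with PE anti-human Fc at 1:150 ran 30 min on ice.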

[3] = test system: primary human pan T cells; assay: Cytokine production following PD-L1-dependent costimulation; assay type: cell-based; conditions: mitomycin-c treated K562/OKT3/PDL1 aAPC; FIG. 6
huCTLA4 [4] = target: T2, huCTLA4 (Homo sapiens, UniProt P16410); assay: Antagonism of CD80/CTLA-4 binding on CHO cells expressing CTLA-4; design: Full-length mammalian surface expression constructs for each of human CTLA-4, PD-L1, and CD28; conditions: 25 nM fluorochrome-conjugated wild-type CD80-Fc; FIG. 21
T2 sequence (P16410 36-223): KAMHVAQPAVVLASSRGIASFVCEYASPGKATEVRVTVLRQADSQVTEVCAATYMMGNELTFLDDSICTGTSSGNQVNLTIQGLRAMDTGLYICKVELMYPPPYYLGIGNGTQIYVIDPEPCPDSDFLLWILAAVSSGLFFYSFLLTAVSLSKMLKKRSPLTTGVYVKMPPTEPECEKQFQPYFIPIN
Procedure: After washing, cells were incubated with 25 nM fluorochrome-conjugated wild-type CD80-Fc. Bound fluorescent competitor protein was detected and measured by flow cytometry.
(§2) The multivalent variant CD80 IgSF domain fusion proteins were assessed to test for blocking of the PD-L1/PD-1 and CTLA-4/CD80 interaction performed substantially as described in Example 15. CHO/OKT3/PD-L1 and CHO/CTLA-4 cells were counted and plated at 100,000 cells/well and then incubated with fluorescently conjugated PD-1-Fc and CD80-Fc. Exemplary multivalent variant CD80 IgSF domain fusion proteins were incubated with the cells for 30 minutes. […] Cells were washed and incubated with 100 nM fluorescently conjugated PD-1-Fc and CD80-Fc competitor for 30 minutes. Cells were then washed and samples were acquired on a flow cytometer and MFIs of the fluorescently labeled molecules were determined.

PD-L1/PD-1 interaction = target: T3, PD-L1/PD-1 interaction (Homo sapiens, UniProt Q9NZQ7); assay: PD-L1/PD-1 binding and blocking on CHO/PD-L1 cells; conditions: fluorescently conjugated PD-1-Fc; FIG. 7
T3 construct: expressed in transfected cells
T3 sequence (Q9NZQ7 19-290): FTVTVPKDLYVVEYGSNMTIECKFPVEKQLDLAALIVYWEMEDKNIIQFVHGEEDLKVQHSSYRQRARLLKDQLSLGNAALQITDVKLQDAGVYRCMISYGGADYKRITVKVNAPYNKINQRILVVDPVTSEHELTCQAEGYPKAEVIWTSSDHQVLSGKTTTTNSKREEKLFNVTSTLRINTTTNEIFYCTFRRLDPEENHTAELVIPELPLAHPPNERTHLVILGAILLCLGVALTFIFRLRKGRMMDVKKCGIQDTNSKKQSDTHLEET
Procedure: Binding of selected immunomodulatory fusion proteins to cells expressing PD-L1 was assessed to test for blocking of the PD-L1/PD-1 interaction. […] Samples were acquired on a flow cytometer and MFIs of the fluorescently labeled PD-1 were determined by Flowjo software analysis.
as §2

huCTLA4 [5] = target: T2, huCTLA4; assay: Flow binding to CHO cells stably expressing CTLA4; design: huCTLA4 and huPD-L1, full-length mammalian surface expression constructs were generated; expressed in transfected cells; host or cells: CHO cells, lentiviral transduction, sorted to >98% purity; conditions: Table E19; CHO cells stably expressing CTLA4; 33.3 nM
How it was run: as §1

CD28 [6] = target: T1, CD28; assay: Jurkat/IL2 + CHO/OKT3 +/- PD-L1 reporter assay: PD-L1-dependent CD28 costimulation; assay type: cell-based; design: host or cells: Jurkat cells expressing an IL-2-luciferase reporter; conditions: luciferase signal
How it was run: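 Readout is relative luminescence from lysed cocultures: test protein given 15 min at room temperature to Jurkat cells before adding CHO artificial APCs displaying OKT3 alone or OKT3 plus PD-L1, then 5 h at 37 °C, 5% CO2.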

[7] = test system: huPD-L1 transduced MC38 tumor cells; assay: In vitro cytotoxicity to huPD-L1 transduced MC38 tumor cells; assay type: cell-based, mouse; conditions: 100 nM or 10 nM; 72 hours; human pan T cells 1:5; FIG. 17
Procedure: This Example describes the assessment of in vitro cytotoxicity of huPD-L1 transduced MC38 tumor cells. MC38 tumor cells, non-transduced or transduced with huPD-L1, were treated with Mitomycin-C and plated with human pan T cells labelled with CFSE at a 1:5 ratio. […] As a control, an exemplary anti-PD-1 antibody nivolumab or an Fc (inert) only control also were assessed. Cells were then harvested and stained with 7-AAD viability dye. After acquiring samples on a flow cytometer, the percentage of dead cells was calculated using Flowjo analysis by gating on 7-AAD+ cells in the CFSE− gate.

CD28 [8] = target: T1, CD28; assay: Jurkat/IL2 reporter assay: blockade of CD28 costimulation (plate-bound anti-CD3/CD86-Fc); assay type: cell-based; design: host or cells: Jurkat cells expressing an IL-2-luciferase reporter; conditions: Table E5; protein diluted to 40 nM before mixing with cells; 5 hours
How it was run: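 Readout is Bio-Glo luminescence after a 5 h, 37 °C stimulation of IL-2-luciferase Jurkat reporter cells on wells precoated (overnight, 4 °C) with anti-CD3 antibody and CD86-Fc. Cells were first mixed with CD80-Fc test proteins for 15 min at room temperature.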

CD28 [9] = target: T1, CD28; assay: CD28 costimulation via Fc receptor or PD-L1 dependent cross-linking (Jurkat/IL2 + K562/OKT3 +/- PD-L1); assay type: cell-based; design: host or cells: Jurkat cells expressing an IL-2-luciferase reporter; conditions: K562/0KT3 aAPC, luciferase signal
Procedure: In a further experiment, CD28 costimulation was assessed for variant CD80-IgV-Fc fusion proteins, where the Fc was an IgG1 Fc (e.g. SEQ ID NO:1517) capable of mediating effector activity via binding to Fc receptors (FcR). The experiment was carried out as described in part A above, except CD32-expressing K562 cells stably transduced with OKT3 (K562/OKT3) or OKT3 and PD-L1 (K562/OKT3/PD-L1) were used instead of the CHO/OKT3 and CHO/OKT3/PD-L1 cells, and the results are depicted in Table E9.

Row | Molecule | PD-L1 dependent CD28 costimulation (luciferase activity) (CD28 [1]; IgV-Fc (inert), various concentrations, FIG. 5) | Relative Luciferase Units (RLU), CD80-Fe Cone 50 nM (CD28 [1]; Table E8, K562/OKT3/PD-L1 aAPC, 50 nM) [RLU] | CD28 MFI at 33.3 nM (CD28 [2]) | IL-2 secretion in culture supernatants [3] | antagonism of binding of CD80 to CTLA-4 (huCTLA4 [4]) | blocking of binding of PD-1 to PD-L1 (PD-L1/PD-1 interaction) | CTLA4 MFI at 33.3 nM (huCTLA4 [5]) | PD-L1-Dependent CD28 Costimulation, +PD-L1, 0.6 nM (CD28 [6]; CHO/OKT3/PD-L1 aAPC, 0.6 nM) | PD-L1-Dependent CD28 Costimulation, +PD-L1, 50 nM (CD28 [6]; CHO/OKT3/PD-L1 aAPC, 50 nM) | PD-L1-Dependent CD28 Costimulation, No PD-L1, 50 nM (CD28 [6]; CHO/OKT3 aAPC, no PD-L1, 50 nM) | PD-L1-Dependent CD28 Costimulation, No PD-L1, […] (CD28 [6]; CHO/OKT3 aAPC, no PD-L1, […]) | cytotoxicity (percentage of dead 7-AAD+ tumor cells) [7] | Average Relative Luminescence Units (CD28 [8]) | CD28 costimulation, FcR Dependent Cross-Linking (No PD-L1), 0.6 nM (CD28 [9]; 0.6 nM) | CD28 costimulation, FcR Dependent Cross-Linking (No PD-L1), 50 nM (CD28 [9]; 50 nM)
1 | B1 | induced PD-L1 dependent CD28 costimulation in a dose-dependent manner | 1439 | 1348 | resulted in IL-2 secretion in culture supernatants | antagonized the binding of CD80 to CTLA-4 | antagonize or block binding of PD-1 to PD-L1 | 20884 | – | – | – | – | – | – | – | –
2 | B2 | – | – | – | – | – | – | – | 1004 | 2629 | 600 | 549 | increased cytotoxicity against huPD-L1 transduced MC38 tumor cells, but not non-transduced MC38 parental cells | 1077 Relative Luminescence Units | 1609 | 5780
